The values below come from article PMC5420313.

In this test the target is GST-Dyn2(DQR)_(motor) (D1406A/Q1407A/R1410A mutant of GST-Dyn2_(motor)) (human) (UniProt Q8NCM8).

The substance “GST-Dyn2(DQR)_(motor) (D1406A/Q1407A/R1410A mutant of GST-Dyn2_(motor)), Q8NCM8 1091-4307” registered a maximum velocity of microtubule gliding by the unstacked GST-Dyn2(DQR) (motor) of 562 nm/s.
